Assay results from patent US6642040B2, “Human cGMP-stimulated cyclic nucleotide phosphodiesterase” (The Board of Regents of the University of Washington, priority 1991, dated 2003).

What was measured:
cAMP hydrolysis = assay: cGS-PDE activity of PPD-S49 cells transfected with cGS-PDE cDNA; assay type: biochemical, bovine; details: zinc-treated PPD S49 cells, pZEM 228 vector
From the text: A putative phosphodiesterase-deficient (PPD) strain of S49 cells [Bourne et al., J. Cell. Physiol., 85:611-620 (1975)] was transiently transfected with the cGS-PDE cDNA using the DEAE-dextran method. The cGS-PDE cDNA was ligated into the unique BamHI cloning site in a mammalian expression vector, designated pZEM 228, following a zinc-inducible metallothionine promoter and prior to an SV40 transcription termination sequence. The DNA was purified from large-scale plasmid preparations using Qiagen pack-500 columns as directed by the manufacturer. PPD-S49 cells were cultured in DMEM containing 10% heat-inactivated horse serum, 50 μg/ml penicillin G and 50 μg/ml streptomycin sulfate at 37° C. in a water-saturated 7% CO2 atmosphere. Prior to transfections, confluent 100 mm dishes of cells were replated at one-fifth of the original density and incubated for 24-36 h. In a typical transfection experiment, PPD-S49 cells (50-80% confluent) were washed with Tris-buffered-saline and approximately 2×10^7 cells were transfected with […] of DNA mixed with 400 μg of DEAE-dextran in one ml of TBS. […]
cGS PDE activity was determined by a previously described method using [^3H]cAMP as the substrate as in Martins et al., J. Biol. Chem., 257:1973-1979 (1982). […] The Bradford assay [Bradford, Anal. Biochem., 72:248-254 (1976)] was used to quantitate protein using BSA as the standard.

cGS-PDE activity = cGS-PDE activity of membrane and supernatant fractions of transfected COS-7 cells; assay type: biochemical, bovine; details: most of the activity in supernatant fractions
From the text: Transient expression of the CGS-PDE cDNA in COS-7 cells was accomplished as in Example I. A 4.2 kb fragment of p3CGS-5 was isolated using HindIII and NotI and was inserted into plasmid pCDM8, which had been digested with the same enzymes. The character of products produced in COS-7 cells transformed with the p3CGS-5/pCDM8 construct is discussed in Example V, infra.
For transient expression in COS-7 cells, a 3.8 kb fragment of pBBCGSPDE-7 was isolated using HindIII and NotI and inserted into plasmid pCDM8 which had been cut with HindIII and NotI restriction endonucleases. The recombinant pBBCGSPDE-7/CDM8 construct was used to transiently transfect COS-7 cells. The properties of the pBBCGSPDE-7/CDM8 construct and the p3CGS-5/CDM8 construct prepared in Example IV products were subsequently compared. Membrane and supernatant fractions were prepared from extracts of transfected COS-7 cells and assayed for cGS-PDE activity. […] However, a 10-fold greater percentage of total cGS-PDE activity was detected in membranes from COS-7 cell extracts transfected with the pBBCGSPDE-7/CDM8 construct than in membranes prepared from p3CGS-5/CDM8-transfected COS-7 cells.

yeast host strain YKS45 = assay: Yeast heat shock phenotype complementation, strain YKS45; assay type: cell-based, S. cerevisiae; details: YKS45, 56° C. for 10, 20, 30 and 45 minutes
Description: The host cells used in these procedures were S. cerevisiae yeast strains 10DAB (ATCC accession No. 74049) and YKS45, both of which were pde^1- pde^2- resulting in a phenotype characterized by heat shock sensitivity, i.e., the inability of cells to survive exposure to elevated temperatures on the order of 55-56° C. In these complementation procedures, the inserted gene product was noted to conspicuously modify the heat shock phenotype.
In a like manner, plasmid pHcgs6n (Example VI) was transformed into yeast host strain YKS45 by lithium acetate transformation. Heat shock analysis was performed as above except that the plates were initially grown two days at 30° C. and the warmed plates were maintained at 56° C. for 10, 20, 30 and 45 minutes.

[1] = system: cyclic AMP and cyclic GMP hydrolysis; assay: Phosphodiesterase assay of yeast cell extracts, second method of part D; assay type: biochemical, human; details: extracts of YKS45
Description: YKS45 transformed with plasmid pHcgs6n were grown in SC-leu medium to 1-2×10^7 cells/ml. The cells were harvested by centrifugation and the cell pellets were frozen. A frozen cell pellet, typically containing 10^10 cells, was mixed with lysis buffer (25 mM Tris HCl pH 8, 5 mM EDTA, 5 mM EGTA, 1 mM o-phenathroline, 0.5 mM AEBSF, 0.01 mg/mL pepstatin, 0.01 mg/mL leupeptin, 0.01 mg/mL aprotinin, 0.1% 2-mercaptoethanol) to bring the total volume to 2.5 ml. The mixture was thawed on ice and then added to an equal volume of glass beads. The cells were disrupted by cycles of vortexing and chilling on ice, then additional lysis buffer was mixed with the disrupted cells to bring the total lysis buffer added to 5 ml. The suspension was centrifuged for 5 min. at 12,000× g. The supernatant was removed and either assayed immediately or frozen rapidly in a dry ice ethanol bath and stored at −70° C.
Phosphodiesterase activity was assayed by mixing an aliquot of cell extract in (40 mM Tris-Cl pH 8.0, 1.mM EGTA, 0.01 mg/mL BSA) containing 5 mM MgCl2 and radioactive substrate, incubating at 30° C. for up to 30 min. and terminating the reaction with stop buffer (0.1 M ethanolamine pH 9.0, 0.5M ammonium sulfate, 10 mM EDTA, 0.05% SDS final concentration). […] The radioactive product was measured by scintillation counting.

B1: cGS-PDE cDNA: expression product of bovine adrenal cortex cGS-PDE cDNA (SEQ ID NO: 39) (protein)
chain: MRRQPAASRDLFAQEPVPPGSGDGALQDALLSLGSVIDVAGLQQAVKEALSAVLPKVETVYTYLLDGESRLVCEEPPHELPQEGKVREAVISRKRLGCNGLGPSDLPGKPLARLVAPLAPDTQVLVIPLVDKEAGAVAAVILVHCGQLSDNEEWSLQAVEKHTLVALKRVQALQQRESSVAPEATQNPPEEAAGDQKGGVAYTNQDRKILQLCGELYDLDASSLQLKVLQYLQQETQASRCCLLLVSEDNLQLSCKVIGDKVLEEEISFPLTTGRLGQVVEDKKSIQLKDLTSEDMQQLQSMLGCEVQAMLCVPVISRATDQVVALACAFNKLGGDLFTDQDEHVIQHCFHYTSTVLTSTLAFQKEQKLKCECQALLQVAKNLFTHLDDVSVLLQEIITEARNLSNAEICSVFLLDQNELVAKVFDGGVVEDESYEIRIPADQGIAGHVATTGQILNIPDAYAHPLFYRGVDDSTGFRTRNILCFPIKNENQEVIGVAELVNKINGPWFSKFDEDLATAFSIYCGISIAHSLLYKKVNEAQYRSHLANEMMMYHMKVSDDEYTKLLHDGIQPVAAIDSNFASFTYTPRSLPEDDTSMAILSMLQDMNFINNYKIDCPTLARFCLMVKKGYRDPPYHNWMHAFSVSHFCYLLYKNLELTNYLEDMEIFALFISCMCHDLDHRGTNNSFQVASKSVLAALYSSEGSVMERHHFAQAIAILNTHGCNIFDHFSRKDYQRMLDLMRDIILATDLAHHLRIFKDLQKMAEVGYDRTNKQHHSLLLCLLMTSCDLSDQTKGWKTTRKIAELIYKEFFSQGDLEKAMGNRPMEMMDREKAYIPELQISFMEHIAMPIYKLLQDLFPKAAELYERVASNREHWTKVSHKFTIRGLPSNNSLDFLDEEYEVPDLDGARAPINGCCSLDAE
- cGMP-enhanced cAMP phosphodiesterase activity (cAMP hydrolysis): expressed cGMP-enhanced CAMP phosphodiesterase activity
- cGS-PDE activity in COS-7 cell extracts (cGS-PDE activity): produced cGS-PDE activities

B2: pHcgs6n: yeast expression plasmid with coding region of human cGS-PDE (SEQ ID NO: 45) (protein)
chain: MGQACGHSILCRSQQYPAARPAEPRGQQVFLKPDEPPPPPQPCADSLQDALLSLGSVIDISGLQRAVKEALSAVLPRVETVYTYLLDGESQLVCEDPPHELPQEGKVREAIISQKRLGCNGLGFSDLPGKPLARLVAPLAPDTQVLVMPLADKEAGAVAAVILVHCGQLSDNEEWSLQAVEKHTLVALRRVQVLQQRGPREAPRAVQNPPEGTAEDQKGGAAYTDRDRKILQLCGELYDLDASSLQLKVLQYLQQETRASRCCLLLVSEDNLQLSCKVIGDKVLGEEVSFPLTGCLGQVVEDKKSIQLKDLTSEDVQQLQSMLGCELQAMLCVPVISRATDQVVALACAFNKLEGDLFTDEDEHVIQHCFHYTSTVLTSTLAFQKEQKLKCECQALLQVAKNLFTHLDDVSVLLQEIITEARNLSNAEICSVFLLDQNELVAKVFDGGVVDDESYEIRIPADQGIAGHVATTGQILNIPDAYAHPLFYRGVDDSTGFRTRNILCFPIKNENQEVIGVAELVNKINGPWFSKFDEDLATAFSIYCGISIAHSLLYKKVNEAQYRSHLANEMMMYHMKVSDDEYTKLLHDGIQPVAAIDSNFASFTYTPRSLPEDDTSMAILSMLQDMNFINNYKIDCPTLARFCLMVKKGYRDPPYHNWMHAFSVSHFCYLLYKNLELTNYLEDIEIFALFISCMCHDLDHRGTNNSFQVASKSVLAALYSSEGSVMERHHFAQAIAILNTHGCNIFDHFSRKDYQRMLDLMRDIILATDLAHHLRIFKDLQKMAEVGYDRNNKQHHRLLLCLLMTSCDLSDQTKGWKTTRKIAELIYKEFFSQGDLEKAMGNRPMEMMDREKAYIPELQISFMEHIAMPIYKLLQDLFPKAAELYERVASNREHWTKVSHKFTIRGLPSNNSLDFLDEEYEVPDLDGTRAPINGCCSLDAE
- heat shock phenotype of transformed yeast (yeast host strain YKS45): resistant to thermal pulse
- hydrolysis of cyclic AMP and cyclic GMP by cell extracts [1]: hydrolyzed both cyclic AMP and cyclic GMP
